± gives the standard deviation of the averaged measurements.
Tested on: Saccharomyces cerevisiae
Test: protein stability index of tFT-peptide fusion (C-terminal peptide) (PSI (0-1 scale)); higher = more stable (slower turnover)
Conditions: temperature: 30 C
Procedure: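 MPS profiling in S. cerevisiae of the yeast C-terminome library: the last 12 aa of each annotated ORF are fused to the C-terminus of a sfGFP-mCherry timer, after a GGGS linker. Cells are FACS-sorted into 8 mCherry/sfGFP bins and deep-sequenced. PSI runs from 0 (unstable) to 1 (stable); wild type and das1Δ backgrounds, two technical replicates each.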

[1] = genetic background: das1 deletion

| Sequence | protein stability index [1] | protein stability index (genetic background: wild type) |
| --- | --- | --- |
| CMESNPPVFMAI [YNL296W C-terminal 12 aa] | 0.709 ± 0.035 | 0.713 ± 0.021 |
| KVRTQSKQPQEE [SAW1 C-terminal 12 aa] | 0.682 ± 0.021 | 0.673 ± 0.026 |
| ISTAPEQMMFLP [MSG5 C-terminal 12 aa] | 0.7169 ± 0.0058 | 0.7155 ± 0.0068 |
| EANNLLNIIKGN [MRP51 C-terminal 12 aa] | 0.6795 ± 0.0042 | 0.294 ± 0.035 |
| NSIDIGSRLSLM [PEX1 C-terminal 12 aa] | 0.704 ± 0.0078 | 0.68911 ± 4.9e-05 |
| VYARDAAALRPV [SCS3 C-terminal 12 aa] | 0.716 ± 0.021 | 0.686 ± 0.03 |
| EYSKKYLTTFFQ [YEA6 C-terminal 12 aa] | 0.706 ± 0.025 | 0.722 ± 0.03 |
| ATALSGHKANCN [MTQ1 C-terminal 12 aa] | 0.6878 ± 0.0049 | 0.6424 ± 0.0012 |
| YLTFYKSPKTFY [YDR183C-A C-terminal 12 aa] | 0.71 ± 0.037 | 0.637 ± 0.055 |
| YLALKWIVVEQK [ADP1 C-terminal 12 aa] | 0.521 ± 0.021 | 0.573 ± 0.018 |
| DVKPQENGNDSS [REG1 C-terminal 12 aa] | 0.71 ± 0.014 | 0.705 ± 0.037 |
| LLILLVLFSKFK [VTI1 C-terminal 12 aa] | 0.295 ± 0.02 | 0.302 ± 0.0073 |
| DEEEEIEPEVKA [SBA1 C-terminal 12 aa] | 0.678 ± 0.017 | 0.685 ± 0.027 |
| LAITIAALCASL [EXG2 C-terminal 12 aa] | 0.55 ± 0.0069 | 0.572 ± 0.018 |
| KTVSPNWEVKEL [CYM1 C-terminal 12 aa] | 0.6828 ± 0.0036 | 0.702 ± 0.019 |
| QLQDLLSSENNK [AIM11 C-terminal 12 aa] | 0.7169 ± 0.0021 | 0.688 ± 0.032 |
| IADHLVGRKRVD [PFK2 C-terminal 12 aa] | 0.701 ± 0.014 | 0.712 ± 0.059 |
| SDEEPSSKKRKV [VPS75 C-terminal 12 aa] | 0.703 ± 0.035 | 0.678 ± 0.01 |
| KFDKPLYERLET [YNR014W C-terminal 12 aa] | 0.6855 ± 0.0028 | 0.651 ± 0.044 |
| PFYRTSAESIDF [SLM5 C-terminal 12 aa] | 0.719 ± 0.022 | 0.706 ± 0.034 |
| LENIKKAKEFFQ [GTR1 C-terminal 12 aa] | 0.726 ± 0.012 | 0.705 ± 0.027 |

| Sequence | protein stability index [1] | protein stability index (genetic background: wild type) |
| --- | --- | --- |
| SSTVESTNINME [MRT4 C-terminal 12 aa] | 0.6903 ± 0.0023 | 0.721 ± 0.00096 |
| RRNRGTPVKYTR [DOT1 C-terminal 12 aa] | 0.6965 ± 0.0024 | 0.7 ± 0.016 |
| NGEIMTCWEWKE [HEH2 C-terminal 12 aa] | 0.691 ± 0.034 | 0.686 ± 0.019 |
| EAELEEDWGMYG [YBR062C C-terminal 12 aa] | 0.7114 ± 0.0068 | 0.7097 ± 0.0017 |
| KNHDFKDCADIF [SWH1 C-terminal 12 aa] | 0.721 ± 0.017 | 0.688 ± 0.043 |
| GSTSCPLLRLSR [YHR073C-B C-terminal 12 aa] | 0.707 ± 0.021 | 0.685 ± 0.013 |
| ERNKKSRPPIYK [ARL3 C-terminal 12 aa] | 0.734 ± 0.03 | 0.735 ± 0.09 |
| FCMGVAAFVTTA [UTP21 C-terminal 12 aa] | 0.493 ± 0.013 | 0.497 ± 0.0075 |
| HLEKKEPKSRKK [YDL129W C-terminal 12 aa] | 0.724 ± 0.013 | 0.689 ± 0.03 |
| NVLGEPFDRYLD [UTP10 C-terminal 12 aa] | 0.724 ± 0.017 | 0.716 ± 0.013 |
| SSYFRIEGKKKK [CUE2 C-terminal 12 aa] | 0.68 ± 0.022 | 0.683 ± 0.024 |
| NNYNLWFRLSSS [ECL1 C-terminal 12 aa] | 0.702 ± 0.027 | 0.668 ± 0.055 |
| TAIVAVVALLLL [DAN4 C-terminal 12 aa] | 0.343 ± 0.0084 | 0.353 ± 0.0092 |
| EAQLTRKQAPPV [COS9 C-terminal 12 aa] | 0.7035 ± 0.004 | 0.699 ± 0.015 |
| LNRKWYTRFFFP [MNN10 C-terminal 12 aa] | 0.732 ± 0.012 | 0.702 ± 0.035 |
| VHDDSRCYTHFY [BNI4 C-terminal 12 aa] | 0.7313 ± 0.0033 | 0.726 ± 0.047 |
| TDNGSVLPLNPS [BAS1 C-terminal 12 aa] | 0.696 ± 0.015 | 0.697 ± 0.028 |
| HLYDHILEKMVK [CNM67 C-terminal 12 aa] | 0.694 ± 0.032 | 0.7 ± 0.018 |
| VAFFKAVGATIM [YOR146W C-terminal 12 aa] | 0.625 ± 0.011 | 0.627 ± 0.054 |
| FAGENFHHGDKL [ENO1 C-terminal 12 aa] | 0.707 ± 0.016 | 0.706 ± 0.0078 |
| VKTLANEILNII [ECM11 C-terminal 12 aa] | 0.6687 ± 0.0062 | 0.711 ± 0.0092 |

| Sequence | protein stability index [1] | protein stability index (genetic background: wild type) |
| --- | --- | --- |
| KYYETVGKADII [AIM36 C-terminal 12 aa] | 0.68805 ± 0.00047 | 0.697 ± 0.025 |
| KHGLNDWIVGQK [YPL225W C-terminal 12 aa] | 0.712 ± 0.021 | 0.745 ± 0.035 |
| ALNGDCCLWRWV [SWD3 C-terminal 12 aa] | 0.708 ± 0.015 | 0.292 ± 0.013 |
| LKNGDKPHLLKF [RPL6B C-terminal 12 aa] | 0.714 ± 0.038 | 0.686 ± 0.015 |
| KPFYYKIYRFWC [SAM3 C-terminal 12 aa] | 0.735 ± 0.024 | 0.3886 ± 0.0019 |
| HKQCDSLLDRLK [PTA1 C-terminal 12 aa] | 0.698 ± 0.024 | 0.7053 ± 0.0067 |
| GEASTGNRLSFK [BNI1 C-terminal 12 aa] | 0.719 ± 0.013 | 0.72 ± 0.022 |
| STSDFELDDLED [YPL264C C-terminal 12 aa] | 0.6965 ± 0.0052 | 0.729 ± 0.026 |
| AYLLFYTIRQVN [UBP8 C-terminal 12 aa] | 0.366 ± 0.012 | 0.14 ± 0.011 |
| RSVGKNSEKVST [QDR1 C-terminal 12 aa] | 0.6986 ± 0.0019 | 0.695 ± 0.01 |
| IKKEVSRRLNGR [CUR1 C-terminal 12 aa] | 0.647 ± 0.016 | 0.692 ± 0.03 |
| KERSHHFVRNMN [YKL102C C-terminal 12 aa] | 0.707 ± 0.0071 | 0.637 ± 0.048 |
| VSIYKPYTEESE [WTM1 C-terminal 12 aa] | 0.662 ± 0.0069 | 0.663 ± 0.027 |
| NFTIHRPLNNGR [YDL062W C-terminal 12 aa] | 0.731 ± 0.044 | 0.734 ± 0.027 |
| PNFGFLILNSEP [YAL064W C-terminal 12 aa] | 0.73226 ± 0.00022 | 0.68 ± 0.014 |
| TSDHLFVVFFFW [YDL034W C-terminal 12 aa] | 0.327 ± 0.019 | 0.319 ± 0.035 |
| HKGAVCVALNDV [LST8 C-terminal 12 aa] | 0.6883 ± 0.0052 | 0.696 ± 0.051 |
| LEKHTASDTSCI [YAL066W C-terminal 12 aa] | 0.727 ± 0.025 | 0.692 ± 0.072 |
| RHQGQNIYRSGV [MCM5 C-terminal 12 aa] | 0.682 ± 0.03 | 0.674 ± 0.022 |

From the supplement of paper PMC10724198
